Measurements as given in PMC5261807 (2017).
Non-standard residues stand in square brackets, D forms with d. No end group written: not given here. Arg(Me2a) = CN(C)C(=N)NCCC[C@H](N)C(=O)O; Lys(Me3) = C[N+](C)(C)CCCC[C@H](N)C(=O)O; Arg(Me2s) = CN=C(NC)NCCC[C@H](N)C(=O)O; pT = C[C@@H](OP(=O)(O)O)[C@H](N)C(=O)O; Lys(Me2) = CN(C)CCCC[C@H](N)C(=O)O; pS = N[C@@H](COP(=O)(O)O)C(=O)O; Lys(Me) = CNCCCC[C@H](N)C(=O)O

T1: Bdf1 bromodomain 1 (GST-tagged, WT) (Saccharomyces cerevisiae (strain ATCC …, UniProt P35817))
T1 chain: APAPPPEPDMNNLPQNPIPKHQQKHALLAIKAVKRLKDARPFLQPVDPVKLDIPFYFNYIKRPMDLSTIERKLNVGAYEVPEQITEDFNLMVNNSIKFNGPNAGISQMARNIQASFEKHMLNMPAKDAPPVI

T2: Bdf1 bromodomain 2 (GST-tagged, WT) (Saccharomyces cerevisiae (strain ATCC …, UniProt P35817))
T2 chain: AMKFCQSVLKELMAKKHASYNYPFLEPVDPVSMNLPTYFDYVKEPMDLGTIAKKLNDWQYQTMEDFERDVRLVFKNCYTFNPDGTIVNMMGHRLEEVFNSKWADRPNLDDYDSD

B1: H3 26-45 (peptide)
chain: RKSAPATGGVKKPHRYRPG
modifications: histone peptides carry modifications given inline in the sequence and in columns 4-7 (Kac, Kme1/2/3, Rme2a/s, Cit, pS/pT); N-terminus free or acetylated

Target: T1, Bdf1 bromodomain 1 (GST-tagged, WT)
Test: histone peptide array probed with recombinant GST-bromodomain, signal normalised to myc peptide control

| Binder | binding score |
| --- | --- |
| ART[Lys(Me3)]QTA[Arg(Me2a)][Lys(Me)]STGGKAPRKQ | 0 |
| ARTKQTARKSTGGKAPRKQ (A R T K Q T A R Kme2 S T G G Kac A P R K Q) | 0.0411 |
| PRKQLATKAA[Arg(Me2s)][Lys(Me)][pS]APATGG [H3 16-35] | 0 |
| ARTKQTARKSTGGKAPRKQ (A Rme2a T Kme2 Q T A Rme2a Kac S T G G K A P R K Q) | 0.0126 |
| SGRGKGGKGLGKGGAKRHR (S G R G K G G Kac G L G Kac G G A Kac R H R) | 0.484 |
| ARTKQTA[Arg(Me2a)][Lys(Me)][pS][pT]GGKAPRKQ | 0 |
| B1 | 0.00968 |
| ARTKQTARKSTGGKAPRKQ (A Rme2a T Kme1 Q T A Rme2a Kme2 S T G G K A P R K Q) | 0.00251 |
| SGRGKGGKGLGKGGAKRHR (S G Rme2a G Kac G G Kac G L G K G G A K R H R) | 0.0418 |
| ARTK(Ac)QTARKSTGGKAPRKQ | 0.000538 |
| SGRGKGGKGLGKGGAKRHR (S G R G Kac G G Kac G L G Kac G G A K R H R) | 0.307 |
| ARTKQTA[Arg(Me2a)][Lys(Me3)][pS][pT]GGKAPRKQ | 0.00251 |
| ARTKQTARKSTGGKAPRKQ (A Rme2s T Kme2 Q T A Rme2s K S T G G K A P R K Q) | 0 |
| ARTKQTA[Arg(Me2a)][Lys(Me2)][pS][pT]GGKAPRKQ | 0.00448 |
| AR[pT][Lys(Me3)]QTARKSTGGKAPRKQ | 0.00305 |
| A[Arg(Me2s)]T[Lys(Me2)]QTA[Arg(Me2s)][Lys(Me2)]STGGKAPRKQ | 0 |
| A[Arg(Me2s)]TK(Ac)QTARK(Me)STGGKAPRKQ | 0.00341 |
| SGRGK(Ac)QGGK(Ac)ARAK(Ac)AKSRSS [H2a 1-19] | 0.144 |
| ARTK(Me3)QTARKSTGGKAPRKQ | 0 |
| A[Arg(Me2a)]TK(Ac)QTARKSTGGKAPRKQ | 0.00897 |
| ARTKQTARKSTGGKAPRKQ (A Rme2a T Kac Q T A Rme2a K S T G G K A P R K Q) | 0.00932 |
| ARTKQTARKSTGGKAPRKQ (A Rme2a T Kme2 Q T A Rme2s Kac S T G G K A P R K Q) | 0.0213 |
| ARTKQTA[Arg(Me2a)]K(Me)[pS]TGGKAPRKQ | 0 |
| ARTKQTARKSTGGKAPRKQ (A R T Kme2 Q T A Rme2s Kme1 S T G G K A P R K Q) | 0 |
| ARTKQTARKSTGGKAPRKQ (A Rme2a T Kme2 Q T A Rme2a K S T G G K A P R K Q) | 0.00323 |

Target: T2, Bdf1 bromodomain 2 (GST-tagged, WT)
Test: as above

| Binder | binding score |
| --- | --- |
| ART[Lys(Me3)]QTA[Arg(Me2a)][Lys(Me)]STGGKAPRKQ | 0.00148 |
| ARTKQTARKSTGGKAPRKQ (A R T K Q T A R Kme2 S T G G Kac A P R K Q) | 0.104 |
| PRKQLATKAA[Arg(Me2s)][Lys(Me)][pS]APATGG [H3 16-35] | 0 |
| ARTKQTARKSTGGKAPRKQ (A Rme2a T Kme2 Q T A Rme2a Kac S T G G K A P R K Q) | 0.00423 |
| SGRGKGGKGLGKGGAKRHR (S G R G K G G Kac G L G Kac G G A Kac R H R) | 0.448 |
| ARTKQTA[Arg(Me2a)][Lys(Me)][pS][pT]GGKAPRKQ | 0 |
| B1 | 0.00305 |
| ARTKQTARKSTGGKAPRKQ (A Rme2a T Kme1 Q T A Rme2a Kme2 S T G G K A P R K Q) | 0.000885 |
| SGRGKGGKGLGKGGAKRHR (S G Rme2a G Kac G G Kac G L G K G G A K R H R) | 0.137 |
| ARTK(Ac)QTARKSTGGKAPRKQ | 0.00679 |
| SGRGKGGKGLGKGGAKRHR (S G R G Kac G G Kac G L G Kac G G A K R H R) | 0.496 |
| ARTKQTA[Arg(Me2a)][Lys(Me3)][pS][pT]GGKAPRKQ | 0 |
| ARTKQTARKSTGGKAPRKQ (A Rme2s T Kme2 Q T A Rme2s K S T G G K A P R K Q) | 0.00226 |
| ARTKQTA[Arg(Me2a)][Lys(Me2)][pS][pT]GGKAPRKQ | 0 |
| AR[pT][Lys(Me3)]QTARKSTGGKAPRKQ | 0.006 |
| A[Arg(Me2s)]T[Lys(Me2)]QTA[Arg(Me2s)][Lys(Me2)]STGGKAPRKQ | 0 |
| A[Arg(Me2s)]TK(Ac)QTARK(Me)STGGKAPRKQ | 0.00305 |
| SGRGK(Ac)QGGK(Ac)ARAK(Ac)AKSRSS [H2a 1-19] | 0.394 |
| ARTK(Me3)QTARKSTGGKAPRKQ | 0.00148 |
| A[Arg(Me2a)]TK(Ac)QTARKSTGGKAPRKQ | 0.00915 |
| ARTKQTARKSTGGKAPRKQ (A Rme2a T Kac Q T A Rme2a K S T G G K A P R K Q) | 0.00718 |
| ARTKQTARKSTGGKAPRKQ (A Rme2a T Kme2 Q T A Rme2s Kac S T G G K A P R K Q) | 0.0274 |
| ARTKQTA[Arg(Me2a)]K(Me)[pS]TGGKAPRKQ | 0.00521 |
| ARTKQTARKSTGGKAPRKQ (A R T Kme2 Q T A Rme2s Kme1 S T G G K A P R K Q) | 0 |
| ARTKQTARKSTGGKAPRKQ (A Rme2a T Kme2 Q T A Rme2a K S T G G K A P R K Q) | 0.00698 |
